# B1: PB1(1-686) of influenza A virus RNA-dependent RNA-polymerase (domain or fragment)
# chain: MDVNPTLLFLKVPAQNAISTTFPYTGDPPYSHGTGTGYTMDTVNRTHQYSEKGKWTTNTETGAAQLNPIDGPLPEDNEPSGYAQTDCVLEAMAFLEESHPGIFENSCLETMEVVQQTRVDRLTQGRQTYDWTLNRNQPAATALANTIEVFRSNGLIANESGRLIDFLKDVIESMDKEEMEITTHFQRKRRVRDNMTKKMVTQRTIGKKKQRVNKRSYLIRALTLNTMTKDAERGKLKRRAIATPGMQIRGFVYFVETLARSICEKLEQSGLPVGGNEKKAKLANVVRKMMTNSQDTELSFTITGDNTKWNENQNPRMFLAMITYITKNQPEWFRNILSIAPIMFSNKMARLGKGYMFESKRMKLRTQIPAEMLASIDLKYFNESTRKKIEKIRPLLIDGTASLSPGMMMGMFNMLSTVLGVSILNLGQKKYTKTTYWWDGLQSSDDFALIVNAPNHEGIQAGVDRFYRTCKLVGINMSKKKSYINRTGTFEFTSFFYRYGFVANFSMELPSFGVSGINESADMSIGVTVIKNNMINNDLGPATAQMALQLFIKDYRYTYRCHRGDTQIQTRRSFELKKLWEQTRSKAGLLVSDGGPNLYNIRNLHIPEVCLKWELMDEDYQGRLCNPLNPFVSHKEIESVNNAVVMPAHGPAKSMEYDAVATTHSWIPKRNRSILNTSQRGILEDE
# Molecular target: PA (residues 1-716) of influenza A virus RNA-dependent RNA-polymerase (influenza A virus …, UniProt P31343 1-716)
# Experiment: SEC-SAXS
# Conditions: both partners purified
binder,measurement,value
B1,stoichiometry N,1

# Source: publication PMC4837377 (Scientific Reports, 2016)
